Data reported in paper doi:10.1101/2022.10.21.513107 (bioRxiv, 2022).
Substitutions are numbered along the chain they refer to.

Experiments:
[1] = molecular target: endogenous HPV16 E6 protein of SiHa cells (Human papillomavirus type 16, SiHa …, UniProt P03126); experiment: immunostaining of cells or tissue
His6MBP-4C/4S E6 = His6MBP-4C/4S E6 (Human papillomavirus type 16, reference …, UniProt P03126, stabilised); experiment: far-Western, overlay or dot blot

B1: sdAb C26 (VHH)
VHH: QVQLVESGGGLVQAGGSLRLSCAASGSIYSINAMGWYRQAPGKQRELVAVITSSGSTNYADAVKGRFTISRDNAKNQVYLQMNSLKPEDTAVYYCHAWSPFRGSFSGDALDAWGQGTQVTVSS
binding result [1]: binds

B2: sdAb A37 (VHH)
VHH: QVKLEESGGGLVQAGGSLRLSCVASGSTFIITDMAWYRQAPGKQRELVAGITLRGGTNYADSVKGRFTISRDNVKNTVTLQMNSLKPEDTAVYYCNAKVAEWRNRPDYWGQGTQVTVSS
binding result [1]: binds

B3: sdAb 2A03 (VHH)
VHH: QVQLVESGGGLVQAGGSLRLSCAASGRTSSINIMGWYRQPPGKQREMVATIATGGTTNYAESVKGRFTISRDGAKFVYLQLNDLKPEDTAVYYCNAYRYAVGKNQRAWDIWGQGTQVTVSS
binding result [1]: binds

B4: sdAb C38 (VHH)
VHH: QVQLVESGGGVVQAGGSLRLSCAPSGNIFSINTMGWHRQAPGKQREFVARIRSSGQTNYADSVKGRFTISKDSAKDTVYLQMDNLQPEDSAVYYCTFNSGGWGVERKRRDYWGQGTQVTVSS
binding result (His6MBP-4C/4S E6): binds

B5: sdAb 2A04 (VHH)
VHH: B4 VHH with Q3K, V5E, S90T, S99T, K107Q
binding result [1]: binds
